# Reference: patent US20050144661A1 (WASHINGTON UNIVERSITY, published 2005)
# B1: CLuc-STAT1 (other, Photinus pyralis;human, UniProt P08659 398-550, looked up)
# chain: MSGYVNNPEATNALIDKDGWLHSGDIAYWDEDEHFFIVDRLKSLIKYKGYQVAPAELESILLQHPNIFDAGVAGLPDDDAGELPAAVVVLEHGKTMTEKEIVDYVASQVTTAKKLRGGVVFVDEVPKGLTGKLDARKIREILIKAKKGGKSKLMSQWYELQQLDSKFLEQVHQLYDDSFPMEIRQYLAQWLEKQDWEHAANDVSFATIRFHDLLSQLDDQYSRFSLENNFLLQHNIRKSKRNLQDNFQEDPIQMSMIIYSCLKEERKILENAQRFNQAQSGNIQSTVMLDKQKELDSKVRNVKDKVMCIEHEIKSLEDLQDEYDFKCKTLQNREHETNGVAKSDQKQEQLLLKKMYLMLDNKRKEVVHKIIELLNVTELTQNALINDELVEWKRRQQSACIGGPPNACLDQLQNWFTIVAESLQQVRQQLKKLEELEQKYTYEHDPITKNKQVLWDRTFSLFQQLIQSSFVVERQPCMPTHPQRPLVLKTGVQFTVKLRLLVKLQELNYNLKVKVLFDKDVNERNTVKGFRKFNILGTHTKVMNMEESTNGSLAAEFRHLQLKEQKNAGTRTNEGPLIVTEELHSLSFETQLCQPGLVIDLETTSLPVVVISNVSQLPSGWASILWYNMLVAEPRNLSFFLTPPCARWAQLSEVLSWQFSSVTKRGLNVDQLNMLGEKLLGPNASPDGLIPWTRFCKENINDKNFPFWLWIESILELIKKHLLPLWNDGCIMGFISKERERALLKDQQPGTFLLRFSESSREGAITFTWVERSQNGGEPDFHAVEPYTKKELSAVTFPDIIRNYKVMAAENIPENPLKYLYPNIDKDHAFGKYYSRPKEAPEPMELDGPKGTGYIKTELISVSEVHPSRLQTTDNLLPMSPEEFDEVSRIVGSVEFDSMMNTV
# modifications: unphosphorylated on Y701 in untreated cells (Western blot); phosphorylated after IFN-γ
# notes: not shown: Gly/Ser linker with cloning sites
# Legend:
# Unfused CLuc = molecular target: T1, Unfused CLuc (Photinus pyralis); assay: cell-based or functional assay
# T1 chain: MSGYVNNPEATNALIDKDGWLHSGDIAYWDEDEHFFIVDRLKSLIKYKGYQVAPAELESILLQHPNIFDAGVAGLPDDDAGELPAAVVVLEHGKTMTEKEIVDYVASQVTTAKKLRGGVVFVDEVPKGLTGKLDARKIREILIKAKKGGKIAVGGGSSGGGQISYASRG
# CLuc(398-550)-FKBP [1] = molecular target: T2, CLuc(398-550)-FKBP (Photinus pyralis; human, UniProt P08659 398-550 = luciferase; P62942 1-108); assay: cell-based or functional assay
# CLuc-STAT1 = molecular target: B1; assay: LCI, live HEK-293 cells
# STAT1-NLuc = molecular target: T3, STAT1-NLuc (human; Photinus pyralis, UniProt P42224 1-750; P08659 2-416 = luciferase, unphosphorylated on Y701 in untreated cells (Western blot); phosphorylated after IFN-γ); assay: LCI, live HEK-293 cells
# T3 construct: not shown: Gly/Ser linker region reconstituted up to the BsiWI site
# CLuc(398-550)-FKBP [2] = molecular target: T2, CLuc(398-550)-FKBP; assay: LCI in mice with i.p. implants of transfected HEK-293 cells, with and without rapamycin
binder,measurement,setting,value
"FRB-NLuc(2-416) (other, human;Photinus pyralis, UniProt P42345 2024-2113, looked up, range 2024-2113;range 2-416; The printed ORF starts with an added Met (MEMWHEG...); not shown: flexible Gly/Ser linker with multiple cloning site) HEMWHEGLEEASRLYFGERNVKGMFEVLEPLHAMMERGPQTLKETSFNQAYGRDLMEAQEWCRKYMKSGNVKDLTQAWDLYYHVFRRISKEDAKNIKKGPAPFYPLEDGTAGEQLHKAMKRYALVPGTIAFTDAHIEVNITYAEYFEMSVRLAEAMKRYGLNTNHRIVVCSENSLQFFMPVLGALFIGVAVAPANDIYNERELLNSMNISQPTVVFVSKKGLQKILNVQKKLPIIQKIIIMDSKTDYQGFQSMYTFVTSHLPPGFNEYDFVPESFDRDKTIALIMNSSGSTGLPKGVALPHRTACVRFSHARDPIFGNQIIPDTAILSVVPFHHGFGMFTTLGYLICGFRVVLMYRFEEELFLRSLQDYKIQSALLVPTLFSFFAKSTLIDKYDLSNLHEIASGGAPLSKEVGEAVAKRFHLPGIRQGYGLTETTSAILITPEGDDKPGAVGKVVPFFEAKVVDLDTGKTLGVNQRGELCVRGPMIMSGYVNNPEATNALIDKDG",bioluminescence signal against FRB-NLuc/CLuc-FKBP without rapamycin,Unfused CLuc,3 fold lower
same,"apparent Kd of rapamycin for induced FRB/FKBP association, bioluminescence readout in intact HEK-293 cells",CLuc(398-550)-FKBP [1],1.5 nM
same,apparent Ki of FK506 for inhibition of rapamycin-induced luciferase activity in situ (rapamycin 80 nM),CLuc(398-550)-FKBP [1],4.2 nM
same,"bioluminescence induction by rapamycin (80 nM) in cell lysates over untreated lysates, within 15 minutes",CLuc(398-550)-FKBP [1],18 fold
same,drug-specific induction of bioluminescence over background,CLuc(398-550)-FKBP [1],1200 fold
same,"maximal mean bioluminescence signal over untransfected cells, with rapamycin, live HEK-293 cells",CLuc(398-550)-FKBP [1],72 fold
same,maximum bioluminescence in rapamycin-treated mice over untreated mice (i.p. cell implants),CLuc(398-550)-FKBP [1],23 fold
same,"mean maximal increase in bioluminescence with rapamycin (80 nM) over untreated transfected cells, within 4-6 hrs",CLuc(398-550)-FKBP [1],6 fold
same,binding result,CLuc-STAT1,no binding
B1,binding result,STAT1-NLuc,binds
"CLuc-14-3-3ε (other, UniProt P08659 398-550, looked up, FKBP of the CLuc fusion vector replaced by 14-3-3ε; not shown: Gly/Ser linker with cloning sites) MSGYVNNPEATNALIDKDGWLHSGDIAYWDEDEHFFIVDRLKSLIKYKGYQVAPAELESILLQHPNIFDAGVAGLPDDDAGELPAAVVVLEHGKTMTEKEIVDYVASQVTTAKKLRGGVVFVDEVPKGLTGKLDARKIREILIKAKKGGKSKLMDDREDLVYQAKLAEQAERYDEMVESMKKVAGMDVELTVEERNLLSVAYKNVIGARRASWRIISSIEQKEENKGGEDKLKMIREYRQMVETELKLICCDILDVLDKHLIPAANTGESKVFYYKMKGDYHRYLAEFATGNDRKEAAENSLVAYKAASDIAMTELPPTHPIRLGLALNFSVFYYEILNSPDRACRLAKAAFDDAIAELDTLSEESYKDSTLIMQLLRDNLTLWTSDMQGDGEEQNKEALQDVEDENQ",binding result,STAT1-NLuc,no binding
"Cdc25C-NLuc (other, human;Photinus pyralis, UniProt P30307 1-473, looked up, phosphorylated on S216 in the cells (Western blot, reduced by UCN-01), FRB of the NLuc fusion vector replaced by the Cdc25C open reading frame; not shown: Gly/Ser linker region reconstituted up to the BsiWI site) MSTELFSSTREEGSSGSGPSFRSNQRKMLNLLLERDTSFTVCPDVPRTPVGKFLGDSANLSILSGGTPKRCLDLSNLSSGEITATQLTTSADLDETGHLDSSGLQEVHLAGMNHDQHLMKCSPAQLLCSTPNGLDRGHRKRDAMCSSSANKENDNGNLVDSEMKYLGSPITTVPKLDKNPNLGEDQAEEISDELMEFSLKDQEAKVSRSGLYRSPSMPENLNRPRLKQVEKFKDNTIPDKVKKKYFSGQGKLRKGLCLKKTVSLCDITITQMLEEDSNQGHLIGDFSKVCALPTVSGKHQDLKYVNPETVAALLSGKFQGLIEKFYVIDCRYPYEYLGGHIQGALNLYSQEELFNFFLKKPIVPLDTQKRIIIVFHCEFSSERGPRMCRCLREEDRSLNQYPALYYPELYILKGGYRDFFPEYMELCEPQSYCPMHHQDHKTELLRCRSQSKVQEGERQLREQIALLVKDMSPEDAKNIKKGPAPFYPLEDGTAGEQLHKAMKRYALVPGTIAFTDAHIEVNITYAEYFEMSVRLAEAMKRYGLNTNHRIVVCSENSLQFFMPVLGALFIGVAVAPANDIYNERELLNSMNISQPTVVFVSKKGLQKILNVQKKLPIIQKIIIMDSKTDYQGFQSMYTFVTSHLPPGFNEYDFVPESFDRDKTIALIMNSSGSTGLPKGVALPHRTACVRFSHARDPIFGNQIIPDTAILSVVPFHHGFGMFTTLGYLICGFRVVLMYRFEEELFLRSLQDYKIQSALLVPTLFSFFAKSTLIDKYDLSNLHEIASGGAPLSKEVGEAVAKRFHLPGIRQGYGLTETTSAILITPEGDDKPGAVGKVVPFFEAKVVDLDTGKTLGVNQRGELCVRGPMIMSGYVNNPEATNALIDKDG",binding result,CLuc-STAT1,no binding
"Unfused NLuc (2-416) (other, Photinus pyralis, UniProt P08659 2-416, looked up) EDAKNIKKGPAPFYPLEDGTAGEQLHKAMKRYALVPGTIAFTDAHIEVNITYAEYFEMSVRLAEAMKRYGLNTNHRIVVCSENSLQFFMPVLGALFIGVAVAPANDIYNERELLNSMNISQPTVVFVSKKGLQKILNVQKKLPIIQKIIIMDSKTDYQGFQSMYTFVTSHLPPGFNEYDFVPESFDRDKTIALIMNSSGSTGLPKGVALPHRTACVRFSHARDPIFGNQIIPDTAILSVVPFHHGFGMFTTLGYLICGFRVVLMYRFEEELFLRSLQDYKIQSALLVPTLFSFFAKSTLIDKYDLSNLHEIASGGAPLSKEVGEAVAKRFHLPGIRQGYGLTETTSAILITPEGDDKPGAVGKVVPFFEAKVVDLDTGKTLGVNQRGELCVRGPMIMSGYVNNPEATNALIDKDG",background bioluminescence against the FRB-NLuc/CLuc-FKBP pair in the absence of rapamycin,Unfused CLuc,12 fold less
same,background bioluminescence against the FRB-NLuc/CLuc-FKBP pair in the presence of rapamycin,Unfused CLuc,100 fold less
"S2035I FRB-NLuc (other, Point mutant of FRB-NLuc made by site directed mutagenesis; also called mutant FRB(S2035I); FRB(S20351)) MEMWHEGLEEAIRLYFGERNVKGMFEVLEPLHAMMERGPQTLKETSFNQAYGRDLMEAQEWCRKYMKSGNVKDLTQAWDLYYHVFRRISKQQISYASRGGGSSGGGEDAKNIKKGPAPFYPLEDGTAGEQLHKAMKRYALVPGTIAFTDAHIEVDITYAEYFEMSVRLAEAMKRYGLNTNHRIVVCSENSLQFFMPVLGALFIGVAVAPANDIYNERELLNSMGISQPTVVFVSKKGLQKILNVQKKLPIIQKIIIMDSKTDYQGFQSMYTFVTSHLPPGFNEYDFVPESFDRDKTIALIMNSSGSTGLPKGVALPHRTACVRFSHARDPIFGNQIIPDTAILSVVPFHHGFGMFTTLGYLICGFRVVLMYRFEEELFLRSLQDYKIQSALLVPTLFSFFAKSTLIDKYDLSNLHEIASGGAPLSKEVGEAVAKRFHLPGIRQGYGLTETTSAILITPEGDDKPGAVGKVVPFFEAKVVDLDTGKTLGVNQRGELCVRGPMIMSGYVNNPEATNALIDKDG",binding result,CLuc(398-550)-FKBP [2],no binding
